T1: CD32b (UniProt P31994 43-217)
T1 construct: Captured by its His-tag
T1 sequence (looked up): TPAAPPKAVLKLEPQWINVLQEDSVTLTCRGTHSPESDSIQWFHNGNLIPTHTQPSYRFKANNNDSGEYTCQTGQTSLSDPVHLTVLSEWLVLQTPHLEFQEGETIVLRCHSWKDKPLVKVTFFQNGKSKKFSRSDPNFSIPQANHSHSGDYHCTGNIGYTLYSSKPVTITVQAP

T2: CD32a (H) (UniProt P12318 36-218)
T2 construct: Captured by its His-tag
T2 sequence (looked up): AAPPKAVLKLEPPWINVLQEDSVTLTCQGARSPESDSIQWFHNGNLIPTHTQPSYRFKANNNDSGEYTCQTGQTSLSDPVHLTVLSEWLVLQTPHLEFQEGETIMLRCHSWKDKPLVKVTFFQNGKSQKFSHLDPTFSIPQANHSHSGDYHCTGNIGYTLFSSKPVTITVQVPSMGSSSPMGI

T3: CD32a (R) (UniProt P12318 36-218)
T3 construct: Captured by its His-tag
T3 sequence (looked up): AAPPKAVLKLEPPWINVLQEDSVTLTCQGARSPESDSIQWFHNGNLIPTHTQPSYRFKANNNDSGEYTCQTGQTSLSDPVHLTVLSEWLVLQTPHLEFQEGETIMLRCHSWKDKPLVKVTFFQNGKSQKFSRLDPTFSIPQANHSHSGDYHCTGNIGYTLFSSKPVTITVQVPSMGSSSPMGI


Columns and labels:
human C1q = human C1q (human, UniProt P02745 23-245; P02746 28-253; P02747 29-245); test: ELISA: antibody titrated onto plate-coated human TNFα (1 µg/mL), then human C1q (0.5 µg/mL), detected with rabbit anti-human C1q and HRP anti-rabbit IgG, absorbance 620 nm
Method: ELISA was performed using 96-well MaxiSorp plates where the wells were coated with human TNFα diluted to 1 μg/mL in PBS. After incubation O/N at 4° C., the plates were blocked with PBS containing 4% skimmed milk for 1 h and washed four times with PBS containing 0.05% Tween-20 (PBS-T). Then, titrated amounts of the anti-TNFα IgG antibodies were diluted in PBS-T, added and incubated for 1h at RT. After washing using PBS-T, human C1q (0.5 μg/mL) was diluted in 0.1 M Veronal buffer (0.25 mM CaCl₂ and 0.8 mM MgCl₂ pH 7.2), added to the wells and incubated for 1 h. Subsequently, the wells were washed as above before rabbit anti-human C1q diluted 1:5000 in PBS-T was added to the wells and incubated for 1 h. After washing, an HRP-conjugated anti-rabbit IgG from donkey diluted 1:5000 in PBS-T was added. Subsequently, the wells were washed and 100 μL 3,3′,5,5′-Tetramethylbenzidine substrate was added to each well. The absorbance was measured at 620 nm using a Sunrise spectrophotometer.
The anti-TNFα antibody variants were captured on human TNFα before human C1q was added.

[1] = biological target: T4, monomeric His-tagged human FcRn (human, UniProt P55899 24-297; P61769 21-119, limits assumed); test: SPR (Biacore 3000) at pH 6.0, antibody amine-coupled, monomeric His-tagged hFcRn as analyte, 25 °C; pH 6.0
T4 construct: also called hFcRn
Method: (§1) SPR was performed using a Biacore 3000 instrument with CM5 sensor chips coupled with anti-TNFα IgG1 antibodies (˜500 resonance units (RU)) using amine-coupling chemistry as described by the manufacturer. The coupling was performed by injecting 2.0 ug/mL of each protein in 10 mM sodium acetate, pH 4.5, using the amine-coupling kit (GE Healthcare). […] All SPR experiments were conducted at 25° C. with a flow rate of 40 ul/min. Binding data were zero-adjusted, and reference cell value subtracted. The Langmuir 1:1 ligand binding model provided by the BIAevaluation software (version 4.1) was used to determine the binding kinetics.

human TNFα [2] = biological target: T5, human TNFα (human, UniProt P01375 77-233); test: SPR (Biacore), antibody captured on Protein A, TNFα as analyte, single cycle kinetics, 25 °C
T5 construct: also called recombinant TNFα
Method: Affinity to TNFα was measured by Biacore. A CM5 chip was prepared using standard amine immobilisation Biacore procedures. Upon insertion of a CM5 chip the system was primed and then normalised with BIA-normalising solution (Biacore Preventative Maintenance Kit 2). The chip was added to the system with PBS-T running buffer; prior to immobilisation the chip surface was primed with three injections of 50 mM NaOH. Protein A was immobilised on the chip surface. For this, the protein was diluted to 5 μg/mL into 10 mM acetate buffer at pH 4.5 and injected so to generate a bound response of ˜1000 RU's in all 4 flow cells. To remove non-covalently bound material from all the chip flow cells, three 15 second 50 mM NaOH washes were performed. On the Protein A chip, antibody was captured in flow cells 2 and 4, with flow cells 1 and 3 used for reference subtraction. The trial antibodies were diluted in PBS-T to 10 nM and 2.5-7.5 uL injected to obtain 120 RU of captured antibody. The analyte TNFα was prepared at 500 μg/mL in water as directed by the supplier and further diluted into the running buffer Phosphate Buffered Saline Tween-20 (PBS-T). Single cycle kinetics was used to estimate the steady state affinity. For each single cycle analysis cycle a titration of 5 analyte concentrations were injected over the ligand and then the dissociation of the complex was measured. The surface was regenerated using glycine pH 1.7. A double referencing method was employed in which data from the ligand bound capture surface (fc 2 and 4) were subtracted from the references surfaces where no ligand was captured (fc 1 and 3 respectively). Blank injections of buffer were run every 3-4 cycles and then subtracted from analyte injection cycles, to correct for small changes in the ligand capture surface. Repeat injections of analyte at the start and end of each analytical run were used to check for sample degradation, or changes in the instrument performance. All analysis was performed at 25° C. and the sample rack was incubated at 10° C. during experimental runs. Each experiment was run at least three times. A 1-to-1 binding model was used to fit the resulting kinetic data.

CD64 = biological target: T6, CD64 (UniProt P12314 16-288, limits assumed); test: SPR (Biacore), His-tagged FcγR captured on anti-His chip, antibody as analyte, 25 °C
T6 construct: Captured on the chip by its His-tag; also called Fcγ receptor CD64
Method: (§2) Affinity to FcγRs was measured by Biacore. A CM5 chip was prepared using standard amine immobilisation Biacore procedures. Upon insertion of a CM5 chip the system was primed and then normalised with BIA-normalizing solution (Biacore Preventative Maintenance Kit 2). The chip was added to the system with PBS-T running buffer; prior to immobilisation the chip surface was primed with three injections of 50 mM NaOH. FcγRs were immobilised on the chip surface using a His-tag capture system. The anti-His tag chip was prepared according to the Biacore kit instructions, with ˜12000 RU's of the antibody deposited on all 4 flow cells. To remove non-covalently bound material from all the chip flow cells, three 30 second 10 mM glycine pH 1.5 washes were performed. The Fcγ receptors were diluted in PBS-T to a range of 0.5-2 μg/mL, with 2.5-5.0 μL injected onto the chip generating capture levels between 60 and 200 RU's. Antibodies were diluted into PBS-T prior to analysis. Single cycle kinetics were used to estimate the steady state affinity. For each single cycle analysis cycle a titration of 5 antibody concentrations were injected over the FcγR ligand and then the dissociation of the complex was measured. The surface was regenerated using the recommended solution, 10 mM glycine pH 1.5 for the anti-His capture surface. A double referencing method was employed in which data from the ligand bound capture surface (fc 2 and 4) were subtracted from the references surfaces where no ligand was captured (fc 1 and 3 respectively). Blank injections of buffer were run for every antibody titration cycle and then subtracted from analyte injection cycles, to correct for small changes in the ligand capture surface. All analysis was performed at 25° C. and the sample rack was incubated at 10° C. during experimental runs. Each experiment was run at least three times.

CD32b = biological target: T1, CD32b; test: as above
Method: as §2

CD32a (H) = biological target: T2, CD32a (H); test: as above
Method: as §2

CD16a (V) [3] = biological target: T7, CD16a (V) (UniProt P08637 17-208); test: as above
T7 construct: Captured by its His-tag
Method: as §2
(§3) The mean and standard deviation affinity calculated from two or more independent experiments is shown.

[4] = biological target: T4, monomeric His-tagged human FcRn; test: SPR at pH 6.0, KD against that of Ab-wt; pH 6.0; fold change from Ab-wt
Method: as §1

human TNFα [5] = biological target: T5, human TNFα; test: cell-based or functional assay
[6] = biological target: T4, monomeric His-tagged human FcRn; test: SPR at pH 6.0, KD against that of IFX; pH 6.0; fold change from IFX
Method: as §1

CD32a (R) = biological target: T3, CD32a (R); test: SPR (Biacore), His-tagged FcγR captured on anti-His chip, antibody as analyte, 25 °C
Method: as §2

CD16a (F) = biological target: T8, CD16a (F) (UniProt P08637 17-208); test: as above
T8 construct: Captured by its His-tag
Method: as §2, §3

CD16b (NA2) = biological target: T9, CD16b (NA2) (UniProt O75015 17-200, limits assumed); test: as above
T9 construct: Captured by its His-tag
Method: as §2, §3

CD16a (V) [7] = biological target: T7, CD16a (V); test: SPR (Biacore), His-tagged FcγR captured; the sentence names no reference (Ab-wt by Table 5)
Method: Affinity to FcγRs was measured by Biacore. A CM5 chip was prepared using standard amine immobilisation Biacore procedures. Upon insertion of a CM5 chip the system was primed and then normalised with BIA-normalizing solution (Biacore Preventative Maintenance Kit 2). The chip was added to the system with PBS-T running buffer; prior to immobilisation the chip surface was primed with three injections of 50 mM NaOH. FcγRs were immobilised on the chip surface using a His-tag capture system. The anti-His tag chip was prepared according to the Biacore kit instructions, with ˜12000 RU's of the antibody deposited on all 4 flow cells. To remove non-covalently bound material from all the chip flow cells, three 30 second 10 mM glycine pH 1.5 washes were performed. The Fcγ receptors were diluted in PBS-T to a range of 0.5-2 μg/mL, with 2.5-5.0 μL injected onto the chip generating capture levels between 60 and 200 RU's. Antibodies were diluted into PBS-T prior to analysis. Single cycle kinetics were used to estimate the steady state affinity. For each single cycle analysis cycle a titration of 5 antibody concentrations were injected over the FcγR ligand and then the dissociation of the complex was measured. The surface was regenerated using the recommended solution, 10 mM glycine pH 1.5 for the anti-His capture surface. […]

T5 sequence (P01375 77-233 limits assumed): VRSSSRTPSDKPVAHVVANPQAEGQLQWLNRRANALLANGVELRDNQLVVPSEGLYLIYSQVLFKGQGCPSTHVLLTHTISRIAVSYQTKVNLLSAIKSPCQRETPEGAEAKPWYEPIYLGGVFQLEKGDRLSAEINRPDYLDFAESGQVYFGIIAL
T6 sequence (P12314 16-288 limits assumed): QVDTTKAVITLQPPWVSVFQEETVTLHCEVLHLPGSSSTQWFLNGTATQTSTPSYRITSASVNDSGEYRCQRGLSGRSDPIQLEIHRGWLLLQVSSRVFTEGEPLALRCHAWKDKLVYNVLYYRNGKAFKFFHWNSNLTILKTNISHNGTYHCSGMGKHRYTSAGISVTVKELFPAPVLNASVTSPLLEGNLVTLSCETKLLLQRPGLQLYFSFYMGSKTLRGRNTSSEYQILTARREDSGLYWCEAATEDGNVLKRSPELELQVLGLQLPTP
Sequence of human C1q (P02745 23-245 limits assumed, chain 1 of 3): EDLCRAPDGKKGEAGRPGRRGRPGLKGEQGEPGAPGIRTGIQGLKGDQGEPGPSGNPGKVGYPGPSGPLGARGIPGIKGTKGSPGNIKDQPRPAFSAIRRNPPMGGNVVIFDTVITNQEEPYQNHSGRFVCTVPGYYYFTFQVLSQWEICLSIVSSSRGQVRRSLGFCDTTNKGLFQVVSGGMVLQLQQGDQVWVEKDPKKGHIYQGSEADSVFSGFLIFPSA
Sequence of human C1q (P02746 28-253 limits assumed, chain 2 of 3): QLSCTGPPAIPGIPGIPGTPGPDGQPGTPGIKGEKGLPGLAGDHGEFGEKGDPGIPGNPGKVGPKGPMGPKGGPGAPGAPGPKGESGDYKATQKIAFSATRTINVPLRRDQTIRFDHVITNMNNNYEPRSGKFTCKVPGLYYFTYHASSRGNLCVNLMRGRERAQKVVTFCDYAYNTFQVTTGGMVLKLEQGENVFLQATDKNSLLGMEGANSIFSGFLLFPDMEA
Sequence of human C1q (P02747 29-245 limits assumed, chain 3 of 3): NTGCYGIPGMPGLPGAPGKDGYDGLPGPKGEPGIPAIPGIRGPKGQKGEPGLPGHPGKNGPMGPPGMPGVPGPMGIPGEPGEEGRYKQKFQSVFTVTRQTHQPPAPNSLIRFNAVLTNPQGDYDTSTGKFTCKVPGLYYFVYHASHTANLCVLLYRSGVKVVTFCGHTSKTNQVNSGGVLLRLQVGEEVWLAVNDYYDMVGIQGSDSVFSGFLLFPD
T7 sequence (P08637 17-208 F176V limits assumed): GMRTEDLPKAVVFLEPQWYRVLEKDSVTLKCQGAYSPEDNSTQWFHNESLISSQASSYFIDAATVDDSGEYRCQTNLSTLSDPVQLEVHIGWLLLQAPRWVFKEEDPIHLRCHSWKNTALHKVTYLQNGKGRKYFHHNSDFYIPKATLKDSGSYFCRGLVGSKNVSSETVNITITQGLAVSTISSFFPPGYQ
T8 sequence (P08637 17-208 limits assumed): as the sequence (P08637 17-208 F176V limits assumed) above, with V160F counted along it
T9 sequence (O75015 17-200 N65S limits assumed): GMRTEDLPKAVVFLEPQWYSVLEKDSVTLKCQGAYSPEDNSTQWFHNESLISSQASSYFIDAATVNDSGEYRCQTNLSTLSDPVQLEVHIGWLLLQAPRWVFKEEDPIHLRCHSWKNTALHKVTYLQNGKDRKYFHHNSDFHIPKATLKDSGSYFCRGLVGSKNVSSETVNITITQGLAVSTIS

| Binder | EC50 (read off the curve) (human C1q) [µg/mL] | Kd [1] [nM] | Kd (human TNFα [2]) [nM] | koff (human TNFα [2]) [s⁻¹] | kon (human TNFα [2]) [M⁻¹ s⁻¹] | Kd (CD64) [nM] | Kd (CD32b) [nM] | Kd (CD32a (H)) [nM] | Kd (CD16a (V) [3]) [nM] | Fold change from wt [4] [fold] | IC50 (read off the curve) (human TNFα [5]) [µg/mL] | Fold change from IFX [6] [fold] | Kd (CD32a (R)) [nM] | Kd (CD16a (F)) [nM] | Kd (CD16b (NA2)) [nM] | fold increase in affinity (CD16a (V) [7]) [fold] |
| --- | --- | --- | --- | --- | --- | --- | --- | --- | --- | --- | --- | --- | --- | --- | --- | --- |
| Ab-wt (antibody, human IgG1, kappa, Human IgG1 anti-TNFα antibody with wild-type Fc; also called parent antibody; wild-type antibody) heavy: not shown light: DIQMTQSPSSLSASVGDRVTIKCQASQSIFSGLAWYQQKPGKAPKLLIYGASKLASGVPSRFSGSGSGTEFTLTISGLQPADFATYYCQSYYYSSSSSDGSYAFGGGTKLTVLGRTVAAPSVFIFPPSDEQLKSGTASVVCLLNNFYPREAKVQWKVDNALQSGNSQESVTEQDSKDSTYSLSSTLTLSKADYEKHKVYACEVTHQGLSSPVTKSFNRGEC |  | 1000 | 0.00413 | 3.45e-05 | 8.37e+06 | 2.92 | 3140 | 670 | 184 |  |  |  |  |  |  |  |
| Ab-AA (antibody, human IgG1, kappa, Human IgG1; also called E380A/N434A variant) heavy: not shown light: DIQMTQSPSSLSASVGDRVTIKCQASQSIFSGLAWYQQKPGKAPKLLIYGASKLASGVPSRFSGSGSGTEFTLTISGLQPADFATYYCQSYYYSSSSSDGSYAFGGGTKLTVLGRTVAAPSVFIFPPSDEQLKSGTASVVCLLNNFYPREAKVQWKVDNALQSGNSQESVTEQDSKDSTYSLSSTLTLSKADYEKHKVYACEVTHQGLSSPVTKSFNRGEC | ~0.6 | 119 | 0.00247 | 2.06e-05 | 8.54e+06 | 3.59 | 2170 | 1410 | 707 | 8.4 | ~0.008 | 3.6 | 2050 | 1760 | 2240 |  |

More lines, now with the values ahead:

| EC50 (read off the curve) (human C1q) [µg/mL] | Kd [1] [nM] | Kd (human TNFα [2]) [nM] | koff (human TNFα [2]) [s⁻¹] | kon (human TNFα [2]) [M⁻¹ s⁻¹] | Kd (CD64) [nM] | Kd (CD32b) [nM] | Kd (CD32a (H)) [nM] | Kd (CD16a (V) [3]) [nM] | Fold change from wt [4] [fold] | IC50 (read off the curve) (human TNFα [5]) [µg/mL] | Fold change from IFX [6] [fold] | Kd (CD32a (R)) [nM] | Kd (CD16a (F)) [nM] | Kd (CD16b (NA2)) [nM] | fold increase in affinity (CD16a (V) [7]) [fold] | Binder |
| --- | --- | --- | --- | --- | --- | --- | --- | --- | --- | --- | --- | --- | --- | --- | --- | --- |
| ~0.6 |  |  |  |  |  |  |  |  |  |  |  |  |  |  |  | infliximab (antibody) chain 1: not shown chain 2: DILLTQSPAILSVSPGERVSFSCRASQFVGSSIHWYQQRTNGSPRLLIKYASESMSGIPSRFSGSGSGTDFTLSINTVESEDIADYYCQQSHSWPFTFGSGTNLEVKRTVAAPSVFIFPPSDEQLKSGTASVVCLLNNFYPREAKVQWKVDNALQSGNSQESVTEQDSKDSTYSLSSTLTLSKADYEKHKVYACEVTHQGLSSPVTKSFNRGEC |
| ~0.7 | 103 | 0.00773 | 5.84e-05 | 7.55e+06 | 3.17 | 1370 | 1170 | 39.4 | 9.7 | ~0.008 | 4.1 | 1560 | 170 | 470 | 4.7 | Ab-AA-2FF (antibody, human IgG1, kappa, N-glycans at N297 (EU) with greatly reduced fucose (<10% fucosylated); produced in the presence of 2-deoxy-2-fluoro-fucose (2FF), human IgG1; also called non-fucosylated variant of Ab-AA) heavy: not shown light: DIQMTQSPSSLSASVGDRVTIKCQASQSIFSGLAWYQQKPGKAPKLLIYGASKLASGVPSRFSGSGSGTEFTLTISGLQPADFATYYCQSYYYSSSSSDGSYAFGGGTKLTVLGRTVAAPSVFIFPPSDEQLKSGTASVVCLLNNFYPREAKVQWKVDNALQSGNSQESVTEQDSKDSTYSLSSTLTLSKADYEKHKVYACEVTHQGLSSPVTKSFNRGEC |

From patent publication US20200255511A1 (TILLOTTS PHARMA, published 2020)
